Target: T1, Ocr (overcome classical restriction) protein of bacteriophage T7, unmodified (bacteriophage T7), P03775
T1 chain: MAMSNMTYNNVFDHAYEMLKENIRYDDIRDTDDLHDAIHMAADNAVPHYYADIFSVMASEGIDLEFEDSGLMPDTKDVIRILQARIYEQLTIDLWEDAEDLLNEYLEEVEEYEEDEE
Test: native gel or EMSA; blue native PAGE (NativePAGE Novex 4-16% Bis-Tris) of unmodified Ocr; also native 15% PAGE, non-denaturing reducing conditions
Conditions: remark: other sources report otherwise

B1: Ocr (overcome classical restriction) protein of bacteriophage T7, unmodified, P03775 1-117 (natural protein)
chain: MAMSNMTYNNVFDHAYEMLKENIRYDDIRDTDDLHDAIHMAADNAVPHYYADIFSVMASEGIDLEFEDSGLMPDTKDVIRILQARIYEQLTIDLWEDAEDLLNEYLEEVEEYEEDEE
**Q.** Which stoichiometry N does the source give for B1 here?
**A.** 4

Reference: PMC2806950
